Values joined by “and” are separate entries in the source; they are usually repeats but may differ in a detail not shown here. Equal entries are not always repeated.
T1: TtSlyDcys-Her3
T1 chain: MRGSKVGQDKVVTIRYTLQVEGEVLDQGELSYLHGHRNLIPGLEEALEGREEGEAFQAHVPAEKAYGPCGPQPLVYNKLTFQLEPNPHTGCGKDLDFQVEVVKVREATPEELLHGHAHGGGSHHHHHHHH

T2: recombinant Thermus thermophilus SlyD FKBP-Her3 (TtSlyD-FKBP-Her3)
T2 construct: expressed in E. coli, the N-terminal methionine can be present or not; also called thermo SlyD-Her3; T.T.SlyD-Her3
T2 chain: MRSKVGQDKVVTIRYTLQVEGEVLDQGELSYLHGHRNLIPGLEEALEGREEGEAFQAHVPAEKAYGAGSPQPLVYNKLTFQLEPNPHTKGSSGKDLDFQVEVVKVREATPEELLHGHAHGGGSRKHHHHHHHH

T3: HER1 (EGFR) ECD peptide hairpin, overlapping immobilized 15-mer peptides (human, UniProt P00533 265-283, limits assumed)
T3 construct: domain: peptide hairpin (β-hairpin); CelluSpots 15-mer library; cysteines replaced by serines; also called hairpin motive in EGFR
T3 peptide (looked up): PPLMLYNPTTYQMDVNPEG

T4: HER2 ECD peptide hairpin, overlapping immobilized 15-mer peptides (human, UniProt P04626 269-287, limits assumed)
T4 construct: domain: peptide hairpin (β-hairpin); CelluSpots 15-mer library; cysteines replaced by serines; also called hairpin motive in the HER2 ECD
T4 peptide (looked up): PALVTYNTDTFESMPNPEG

T5: HER4 ECD peptide hairpin (β-hairpin of HER4), overlapping immobilized 15-mer peptides (human)
T5 construct: CelluSpots library of 15-mers as for HER3; cysteines replaced by serines; also called HER4 β-hairpin
T5 peptide: PQTFVYNPTTFQLEHNFNA


Experiments:
TtSlyDcys-Her3 = target: T1, TtSlyDcys-Her3; test: SPR Biacore T200, antibody captured, 25 C
Experimental: A Biacore T200 instrument (GE Healthcare) was mounted with a CM5 series sensor. The sensor was normalized in HBS-ET buffer (10 mM HEPES pH 7.4, 150 mM NaCl, 3 mM EDTA, 0.05% w/v Tween 20) according to the manufacturer's instructions. The sample buffer was the system buffer supplemented with 1 mg/ml CMD (Carboxymethyldextran, Sigma #86524). The system operated at 25° C. 6500 RU RAM-Fcγ (relative units of Fcγ-fragment RamlgG, GE Healthcare) were immobilized according to the manufacturer's instructions using amine coupling EDC/NHS chemistry on all four flow cells. The sensor was deactivated using 1M ethanolamine. […] Concentration dependent kinetics were measured. […] All analytes were injected for 5 min association time and 10 min dissociation time at 100 μl/min flow rate. The sensor capture system was regenerated by a 3 min injection at 10 μl/min of 10 mM glycine pH 1.7. Where possible kinetic data was evaluated using the Biacore T200 evaluation software.

[1] = target: T2, recombinant Thermus thermophilus SlyD …; test: SPR Biacore T100, antibody captured, 25 C, Langmuir fit
Experimental: (§1) A CM5 series sensor was mounted into the system and was normalized in HBS-ET buffer (10 mM HEPES pH 7.4, 150 mM NaCl, 3 mM EDTA, 0.005% w/v Tween 20) according to the manufacturer's instructions. The sample buffer was the system buffer supplemented with 1 mg/ml CMD (Carboxymethyldextran, Sigma #86524). The system operated at 25° C. 6500 RU RAM-Fcγ (relative units of Fcγ-fragment RamlgG, GE Healthcare) were immobilized according to the manufacturer's instructions using EDC/NHS chemistry on all four flow cells. The sensor was deactivated using 1M ethanolamine.
(§2) Analytes in solution were injected at different concentration steps of 0 nM, 1.1 nM, 3.7 nM, 11.1 nM, 33.1 nM and 90 nM for 3.5 min. The dissociation was monitored for 15 min. Where possible, kinetic signatures were evaluated according to a Langmuir fit.

[2] = target: T6, human recombinant HER3 Extracellular Domain (HER3 ECD) (human, UniProt P21860 20-643); test: as above
T6 construct: 68 kDa; also called human-Her3-ECD
Experimental: as §1, §2

[3] = target: T3, HER1 (EGFR) ECD peptide hairpin, …; test: CelluSpots array of overlapping 15-mer peptides
[4] = target: T4, HER2 ECD peptide hairpin, overlapping …; test: CelluSpots array of overlapping 15-mer peptides
[5] = target: T7, HER1, full length, on transfected HEK293 cells (human, UniProt P00533 25-1210); test: IHC on HEK293 cells transiently transfected with full length HER1
T7 construct: HEK293 transiently transfected with a plasmid coding for full length HER1; also called EGFR
Experimental: All selected clones were tested for reactivity and specificity in IHC. […] After an additional fixation in formalin overnight the Agarose blocks were embedded in paraffin. Untransfected HEK293 cells were used as negative controls and treated accordingly to the transfected cells. After paraffin embedding 3 μm thin sections were prepared using a microtome. The sections were mounted on glass microscopy slides and dried for 2 h. All further steps of the immunohistochemical staining procedure were carried out using a Ventana Benchmark XT. The slides were dewaxed and antigen retrieval was performed by applying heat for 1 hour. For antigen retrieval the Ventana buffer CC1 was used. The antibodies were used at a concentration of 1 μg/ml. For the detection of bound antibody the Ventana UltraView detection kit was used.

[6] = target: T8, human HER3, full length, on cells (T47D, MCF7, transfected HEK293) (human, UniProt P21860 20-1342); test: FACS on T47D cells, 0 minutes incubation
T8 construct: endogenous on T47D and MCF7 tumor cells, transient full length in HEK293 (formalin fixed for IHC); also called expressed HER3 ECD

[7] = target: T9, HER3 ECD-HRG complex (Heregulin-activated Her-3 ECD) (human, UniProt P21860 20-643); test: SPR Biacore 3000, antibody captured, Biacore two-state model, kd1, 25 C; kd1, first step of the two-state fit; not the kd2 used for KDapp
T9 construct: receptor-ligand complex made by preincubating HER3 ECD with a five-fold molar excess of Heregulin; also called Heregulin/Her-3 ECD; Heregulin-complexed Her-3 ECD
Experimental: as §1, with “(Carboxymethyldextran).” for “(Carboxymethyldextran, Sigma #86524).”, “10000” for “6500”, “RAM-Fey” for “RAM-Fcγ”, “Fey-fragment Rabbit Anti-Mouse IgG/Jackson Laboratories)” for “Fcγ-fragment RamlgG, GE Healthcare)”, “all” for “all four”

[8] = target: T5, HER4 ECD peptide hairpin (β-hairpin of …); test: CelluSpots array of overlapping 15-mer peptides of the HER family hairpins, chemiluminescence

Row | Kd (TtSlyDcys-Her3) [nM] | MR (Molar Ratio) (TtSlyDcys-Her3) | koff (TtSlyDcys-Her3) [s⁻¹] | kon (TtSlyDcys-Her3) [M⁻¹ s⁻¹] | Kd [1] | koff [1] [s⁻¹] | kon [1] [M⁻¹ s⁻¹] | Kd [2] | koff [2] [s⁻¹] | kon [2] [M⁻¹ s⁻¹] | binding result [3] | binding result [4] | binding result [5] | fold binding level with HRG against without HRG [6] [fold] | koff [7] [s⁻¹] | binding result [8] | Binder
1 | 2.9 | 1.7 | 0.00016 | 54000 | – | – | – | – | – | – | – | – | – | – | – | – | anti-HER3 antibody M-43-01 (antibody, V domains shown, mouse hybridoma clone) VH: EVQLQQSGTVLARPGASVKMSCKASDYTFSNYWVHWVKQRPGQGLEWIGAIYPGNGDSTYYQKFKGKATLTAVTSTSTAYMDLSSLTNGDSAVYFCTRSGVGYNYYFDYWGQGTTLTVSS VL: DIQMTQSPASLSASVGETVTITCRASENIYSNLAWYQQKQGKSPQLLVYIATNLADGVPSRFSGSGSGTQFSLKINSLQPEDLGSYYCQHFYGTPFTFGTGTKLEIE
2 | – | – | – | – | 1.6 nM and 2 nM | 0.00014 | 87000 | 1.08 nM and 1 nM | 5.32e-05 | 49300 | no binding (tested: 1 µg/mL) | no binding (tested: 1 µg/mL) | no binding | ≥ 2 | 0.0502 | no binding | anti-HER3 antibody M-08-11 (antibody, V domains shown, mouse monoclonal antibody from hybridoma, tested as hybridoma supernatant or as antibody; also called M-011) VH: QAYLQQSGAELMRPGASVRMSCQASGYTFTSYTIHWLKQTPRQGLEWIGAIYPRNGDFSYNQKFKDKASLTVDTSSSTAYMHLSSLTSEDSAVYFCARTINYGDWFAYWGQGTLVTVSA VL: DIQMIQSPASLFVSEGETVIITCRASENIYSNLAWYHQKKGKSPQVLVYAAIKLADGVPLRFSGSGSGTQFSLKINSLQSEDFGSYYCQHFWGPPYTFGSGTNLEIK

Reference: patent US20180094062A1 (Hoffmann-La Roche, published 2018)
